Ends that are not written are not given here.
Target: T1, GLP methyltransferase (Homo sapiens, UniProt Q9H9B1)
T1 construct: purchased Cayman Chemical 10755
T1 sequence (Q9H9B1 1-1298): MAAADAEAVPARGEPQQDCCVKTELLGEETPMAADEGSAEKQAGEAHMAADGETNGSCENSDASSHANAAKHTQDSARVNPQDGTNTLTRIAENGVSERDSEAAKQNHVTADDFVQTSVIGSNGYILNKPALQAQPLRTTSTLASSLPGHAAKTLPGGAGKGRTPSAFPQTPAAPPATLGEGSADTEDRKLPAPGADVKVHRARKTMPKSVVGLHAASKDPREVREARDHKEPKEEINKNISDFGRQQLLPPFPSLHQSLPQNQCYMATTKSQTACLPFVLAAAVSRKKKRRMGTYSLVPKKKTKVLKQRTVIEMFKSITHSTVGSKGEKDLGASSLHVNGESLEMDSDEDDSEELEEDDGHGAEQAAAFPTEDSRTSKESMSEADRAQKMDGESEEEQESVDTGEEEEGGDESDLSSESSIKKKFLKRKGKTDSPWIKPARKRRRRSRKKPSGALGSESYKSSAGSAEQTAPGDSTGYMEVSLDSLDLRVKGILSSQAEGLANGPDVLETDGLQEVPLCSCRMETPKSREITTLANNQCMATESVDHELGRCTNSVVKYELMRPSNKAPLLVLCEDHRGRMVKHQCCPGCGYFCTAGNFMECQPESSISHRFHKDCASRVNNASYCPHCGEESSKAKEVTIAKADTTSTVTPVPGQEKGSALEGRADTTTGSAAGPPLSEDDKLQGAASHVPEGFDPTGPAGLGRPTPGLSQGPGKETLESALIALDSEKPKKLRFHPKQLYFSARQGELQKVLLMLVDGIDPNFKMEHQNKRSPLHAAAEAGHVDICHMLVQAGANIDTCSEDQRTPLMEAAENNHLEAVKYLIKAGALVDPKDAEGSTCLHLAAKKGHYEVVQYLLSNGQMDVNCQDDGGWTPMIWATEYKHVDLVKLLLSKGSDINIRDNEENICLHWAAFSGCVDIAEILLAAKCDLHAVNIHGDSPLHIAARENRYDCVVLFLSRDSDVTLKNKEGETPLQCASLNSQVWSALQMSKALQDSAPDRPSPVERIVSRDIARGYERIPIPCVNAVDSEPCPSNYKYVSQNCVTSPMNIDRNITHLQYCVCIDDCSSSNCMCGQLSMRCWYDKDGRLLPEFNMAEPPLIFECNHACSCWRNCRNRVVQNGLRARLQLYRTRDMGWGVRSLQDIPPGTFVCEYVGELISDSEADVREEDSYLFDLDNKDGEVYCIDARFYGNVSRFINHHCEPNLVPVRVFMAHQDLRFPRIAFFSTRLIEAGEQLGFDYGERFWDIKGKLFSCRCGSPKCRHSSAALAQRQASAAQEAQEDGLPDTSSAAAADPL
Assay: In vitro methylation of unmodified H1.0 peptide with GLP, products by LC-MS
Type: biochemical
Details: LC-MS spectral counts; 10U GLP, 3.2 mM S-Adenosyl-L-Methionine, 37° C. 1 hour
Description: In order to identify the precise sites of methylation by G9A and GLP methyltransferases on histone H1.0, in vitro methylation assays were performed and subsequently analyzed by Liquid Chromatography and High-resolution Mass Spectrometry (LC-MS) analysis. Methylation reactions were set up using either G9A methyltransferase (NEB, M0235S, Lot #0031201) or GLP methyltransferase (Cayman Chemical, 10755). The methyl donor in each reaction was unlabeled S-Adenosyl-L-Methionine (NEB, B9003S). […]
For the Liquid Chromatography and High-resolution Mass Spectrometry (LC-MS) analysis, samples were prepared as described above and about 1 μg o the product was injected onto a Thermo Scientific Easy nLC system configured with a 10 cm×100 um trap column and a 25 cm×100 um ID resolving column. […] This ensured optimal full-scan data for quantification. […]
Protein identification was performed using Thermo Scientific Proteome Discoverer version 1.4 (including Sequest and Percolator algorithms) using RefSeqHuman sequence database. […] Protein quantification was performed using Pinpoint version 1.4 software. The Pinpoint quantification workflow included importing the Proteome Discoverer .msf files as spectral libraries. Identified peptides were subsequently quantified in MS .raw files using the Pinpoint peak finding, chromatographic alignment and area calculation algorithms. […]

H1.0K180 dimethylated, % of all peptides: 96.6%
Sequence: AKPVKASKPKKAKPVKPK (not fully specified (N-terminus); listed as Homo sapiens) [unmethylated H1.0 peptide, unmodified H1.0 peptide substrate for in vitro methylation]
